This is an account of results in patent US20130123347, “FRACTALKINE BINDING POLYNUCLEOTIDES AND METHODS OF USE” (published 2013).

A word on the Kd: it is the concentration at which binding is half-saturated. Broadly, the IC50 is the concentration needed to halve the response being measured.

To fix the notation:
B1: 5',3' 10T FKN-S2 Aptamer (ssDNA)
DNA: TTTTTTTTTTGGGGTGGGTGGGGGGCACGTGTGGGGGCGGCCAGGGTGCTTTTTTTTTTT

CCL8, sequence (P80075 24-99, one chain of several): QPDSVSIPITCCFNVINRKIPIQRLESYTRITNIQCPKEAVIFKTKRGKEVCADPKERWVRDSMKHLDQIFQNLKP

For one series, the target named is T1, fractalkine (CX3CL1) (Homo sapiens, UniProt P78423 P78423:25-339). The experiment in a line: filter; homologous competition; 25 pM FKN, PBS pH 7.4, poly dA:dT, BSA, room temp. The note with it: tags: C-terminal polyhistidine; chemokine domain + mucin-like stalk; R&D Systems 365-FR-025; label: 5' 32P; parallel G-quartet and B-form features by CD. On the procedure: The dissociation constant of FKN-S2 for fractalkine was determined using a radioactive homologous competition filter binding assay. Dilutions of unlabeled FKN-S2 aptamer were mixed with a constant concentration of ³²P ATP labeled FKN-S2. The dilutions were then incubated with 25 pM fractalkine for 1 hour at room temperature. […] Bound aptamer was collected by filtration through a nitrocellulose membrane and the dissociation constant determined by non-linear regression analysis.
T1 sequence (P78423 25-339, one chain of several): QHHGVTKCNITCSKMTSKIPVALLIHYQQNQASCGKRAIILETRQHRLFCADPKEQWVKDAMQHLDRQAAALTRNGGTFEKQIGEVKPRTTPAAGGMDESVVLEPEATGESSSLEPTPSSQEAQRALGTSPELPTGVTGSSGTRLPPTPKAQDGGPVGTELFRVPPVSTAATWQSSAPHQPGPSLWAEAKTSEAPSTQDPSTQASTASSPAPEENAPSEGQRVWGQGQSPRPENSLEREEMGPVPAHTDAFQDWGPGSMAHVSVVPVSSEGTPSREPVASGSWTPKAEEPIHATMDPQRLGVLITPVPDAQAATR
All binding experiments occurred in binding buffer composed of PBS with 0.5 μg/mL poly dA:dT and 50 μg/mL bovine serum albumin (BSA), pH 7.4. Unlabeled full length FKN-S2 aptamer was diluted in binding buffer and a constant concentration of radiolabeled full length FKN-S2 aptamer added to each dilution. Full length fractalkine or an equivalent concentration of BSA was diluted in binding buffer to 50 pM. Aptamer and fractalkine/BSA was incubated for 1 hour at room temperature. Following incubation, samples were filtered through a nitrocellulose membrane using a bio-rad dot blot apparatus. Each well was washed 3 times with 200 μL of PBS to remove unbound aptamer. The membrane was dried and exposed to a storage phosphor screen overnight and imaged (Packard Cyclone). Binding was quantified using ImageJ and the Dot Blot Analyzer plug-in. The data was fit to the following equation
In the case of GGGGTGGGTGGGGGGCACGTGTGGGGGCGGCCAGGGTGCT (ssDNA) [FKN-S2], the equilibrium dissociation constant (Kd) worked out at 0.0034 µM.

A further series addresses CCL8 (UniProt P80075 P80075:24-99). Nature of the series: filter; 0.2 nM protein; PBS pH 7.4, room temp. The settings on record: tags: PeproTech 300-15; label: 5' 32P; parallel G-quartet and B-form features by CD. On the procedure:
(§1) FKN-S2 was labeled with γ-³²P ATP using a T4 polynucleotide kinase as described in the FKN-S2 Aptamer Homologous Competitive Binding Assay section. Unlabeled FKN-S2 aptamer and 10⁶ counts per minute of radiolabeled FKN-S2 aptamer were mixed in binding buffer (PBS with 50 μg/mL BSA and 2.5 μg/mL Poly (dA:dT); pH 7.4) and the aptamer was denatured at 95° C. for 5 minutes followed by snap cooling in ice water for 5 minutes. The aptamer was then serial diluted in binding buffer and the dilutions added to full length fractalkine, heat-denatured fractalkine and chemokines CCL8 (PeproTech Catalog Number 300-15) and CXCL16 (PeproTech Catalog Number 300-55). All proteins were at a concentration of 0.2 nM. Fractalkine was denatured by heating to 95° C. for 10 minutes followed by incubation on ice until use. The aptamer and protein were incubated for 1 hour at room temperature. Bound aptamer was collected by filtering the samples thorough at nitrocellulose membrane and signal captured with a phosphor film and imaged. The background was measured from wells containing an identical concentration of BSA without the protein. Binding was quantified using ImageJ. […] The binding that was seen may be due to incomplete denaturing or refolding of fractalkine during the experiment.
In the case of GGGGTGGGTGGGGGGCACGTGTGGGGGCGGCCAGGGTGCT (ssDNA) [FKN-S2], the binding result is “no binding”.

Another series has as its target T2, CXCL16 (UniProt Q9H2A7 Q9H2A7:30-118).
T2 sequence: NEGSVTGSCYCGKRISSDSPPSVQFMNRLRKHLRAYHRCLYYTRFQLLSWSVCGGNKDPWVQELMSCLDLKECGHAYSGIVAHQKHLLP
Nature of the series: filter; 0.2 nM protein; PBS pH 7.4, room temp. The settings on record: tags: PeproTech 300-55; label: 5' 32P; parallel G-quartet and B-form features by CD. On the procedure: as §1
Consider GGGGTGGGTGGGGGGCACGTGTGGGGGCGGCCAGGGTGCT (ssDNA) [FKN-S2], for which the binding result is on record as “no binding”.

Another series deals with T1, fractalkine (CX3CL1). Nature of the series: competition; vs radiolabeled FKN-S2. The note with it: tags: C-terminal polyhistidine; chemokine domain + mucin-like stalk; R&D Systems 365-FR-025. On the procedure: FKN-S2 contains 40 nucleotides and we investigated if truncation of the aptamer would result in sequences with similar affinity to fractalkine but with fewer nucleotides. Three truncated versions of the FKN-S2 aptamer were synthesized with five nucleotides removed from the 5′ end (FKN-S2a), five from the 3′ end (FKN-S2b) and five from each end (FKN-S2c). Additionally, a random 40-mer (5′-[…] (SEQ ID NO:4)) was used as a control. The relative affinities of the truncated aptamers were tested using a heterogeneous competition assay with radiolabeled full length FKN-S2 (FIG. 4). IC₅₀ values (the concentration of 50% reduction in binding) were determined by non-linear regression fitting of the data to the binding equation given in herein and the values are shown in Table 1.
Truncated FKN-S2 Aptamer Competitive Binding Assay. […] 1 nM of unlabeled FKN-S2 and 5,000 cpm/μL (counts per minute/μL) of radio-labeled full length FKN-S2 were heat denatured and snap cooled before addition to either fractalkine or a BSA control at a concentration of 0.1 nM and incubated for 1 hour at room temperature. The solutions were filtered through a nitrocellulose membrane and exposed to a storage phosphor film overnight and imaged. The binding was quantified using ImageJ and the Dot Blot Analyzer plug-in. Data was fit using the non-linear regression program Origin 8 to the equation
As for CTATCGGCGACATGAACTTTGGCAAGGGCATCTGGTCCAT (ssDNA) [random 40-mer], the IC50 is > 100 µM.
In the case of GGGTGGGGGGCACGTGTGGGGGCGGCCAGG (ssDNA) [FKN-S2c], the half-inhibitory concentration (IC50) was > 100 µM.
Regarding GGGGTGGGTGGGGGGCACGTGTGGGGGCGGCCAGG (ssDNA) [FKN-S2b], the IC50 came out at 5.41 µM.

Another series addresses T1, fractalkine (CX3CL1). Nature of the series: filter; 1-10 nM aptamer; PBS pH 7.4, BSA, poly dA:dT. The settings on record: tags: C-terminal polyhistidine; chemokine domain + mucin-like stalk; R&D Systems 365-FR-025; label: 32P. On the procedure: Anti-fractalkine Antibody Blocking Assay. Unlabeled FKN-S2 and scrambled FKN-S2 aptamer (sequence 5′-[…] […], SEQ ID NO:7) were diluted to 10 nM in binding buffer (PBS with 50 μg/mL BSA and 2.5 μg/mL Poly (dA:dT); pH 7.4). Approximately 75,000 cpm/well of radio-labeled aptamer was added and the samples were diluted to 5 and 1 nM. Each dilution was heat denatured and snap cooled. Full length fractalkine was diluted to 0.25 nM and approximately 100 nM of anti-chemokine domain antibody (FKN Ab) was added and allowed to bind for 30 minutes at room temperature. The aptamer was added to the protein solution and incubated at room temperature for 30 minutes. Bound aptamer was collected by filtering the samples thorough at nitrocellulose membrane and signal captured with a phosphor film and imaged. The background binding signal was removed from the FKN and FKN Ab+FKN samples by subtracting the signal from a well containing an identical concentration of BSA without FKN or FKN Ab. Binding was quantified using ImageJ.
GTTGGGATGAGGGTGGGCGGGCGCGGCGGCTGGGGGTCGG (ssDNA) [scrambled FKN-S2]: the binding result is “no binding”.

The target in the next series is T1, fractalkine (CX3CL1). Nature of the series: competition; vs radiolabeled FKN-S2, 0.1 nM FKN, PBS. The note with it: tags: C-terminal polyhistidine; chemokine domain + mucin-like stalk; R&D Systems 365-FR-025. On the procedure: (§2) IC₅₀ Binding Assay. FKN-S2 aptamer was labeled on the 5′ end with a radioactive phosphorous (³²P) using a T4 kinase. Unlabeled aptamer amphiphile was serially diluted in binding buffer composed of PBS with BSA, Poly(dA:dT) and radio-labeled FKN-S2 (generally less than 0.05 nM; ≈20,000 count per minute per well) and unlabeled FKN-S2 (1 nM). This ensured each aptamer dilution contained an identical concentration of FKN-S2. Fractalkine (0.1 nM) or BSA was added to each dilution and the aptamer was allowed to bind for 1 hour at room temperature. Each solution was then filtered though a nitrocellulose membrane where the fractalkine:aptamer complex was captured and non-bound aptamer was removed by washing the membrane three times with PBS. The membrane was then exposed to a phosphor film overnight and imaged. The binding was quantified using imageJ and the data fit to a binding equation to determine the IC₅₀.
Effect of the Spacer on Binding Affinity. […] Radiolabeled FKN-S2 aptamer and unlabeled aptamer-amphiphile were incubated with fractalkine for 1 hour and the aptamer:fractalkine complex collected by filtration through a nitrocellulose membrane. The concentration at which 50% of the aptamer is displaced by the unlabeled competitor is the IC₅₀ value.
For GGGGTGGGTGGGGGGCACGTGTGGGGGCGGCCAGGGTGCTTTTTT (ssDNA, 3' C16 dialkyl tail) [3' 5T FKN-S2 Amphiphile], the IC50 stood at 0.0376 µM.
Turning to TTTTTTTTTTGGGGTGGGTGGGGGGCACGTGTGGGGGCGGCCAGGGTGCT (ssDNA, 5' C16 dialkyl tail) [5' 10T FKN-S2 Amphiphile], the IC50 is 0.0551 µM.
On the same count and under the same terms, in the case of GGGGTGGGTGGGGGGCACGTGTGGGGGCGGCCAGGGTGCTAAAAAAAAAA (ssDNA, 3' C16 dialkyl tail) [3' 10A FKN-S2 Amphiphile] it was 0.0248 µM; in that of GGGGTGGGTGGGGGGCACGTGTGGGGGCGGCCAGGGTGCT (ssDNA, 3' C24 spacer + C16 dialkyl tail) [3' C24 FKN-S2 Amphiphile], 0.0735 µM.
On to GGGGTGGGTGGGGGGCACGTGTGGGGGCGGCCAGGGTGCT (ssDNA, 3' C12 spacer + C16 dialkyl tail) [3' C12 FKN-S2 Amphiphile], for which the half-inhibitory concentration (IC50) was determined as 0.0756 µM.
The same measure, in the same setting: in the case of GGGGTGGGTGGGGGGCACGTGTGGGGGCGGCCAGGGTGCT (ssDNA, 5' C6 amino-linked C16 dialkyl tail) [5' No Spacer FKN-S2 Amphiphile] it was 0.0816 µM; in that of GGGGTGGGTGGGGGGCACGTGTGGGGGCGGCCAGGGTGCT (ssDNA, 3' PEG24 spacer + C16 dialkyl tail) [3' PEG24 FKN-S2 Amphiphile], 0.0496 µM.
Same read-out and setting: in the case of GGGGTGGGTGGGGGGCACGTGTGGGGGCGGCCAGGGTGCT (ssDNA, 3' C6 amino-linked C16 dialkyl tail) [3' No Spacer FKN-S2 Amphiphile] it was 0.0657 µM; in that of GGGGTGGGTGGGGGGCACGTGTGGGGGCGGCCAGGGTGCT (ssDNA, 3' PEG8 spacer + C16 dialkyl tail) [3' PEG8 FKN-S2 Amphiphile], 0.0475 µM.
The same measure, in the same setting: for GGGGTGGGTGGGGGGCACGTGTGGGGGCGGCCAGGGTGCT (ssDNA, 3' PEG4 spacer + C16 dialkyl tail) [3' PEG4 FKN-S2 Amphiphile] the value was 0.0686 µM; for GGGGTGGGTGGGGGGCACGTGTGGGGGCGGCCAGGGTGCTTTTTTTTTTT (ssDNA, 3' C16 dialkyl tail) [3' 10T FKN-S2 Amphiphile], 0.0218 µM.

The target of the next series is T1, fractalkine (CX3CL1). Nature of the series: competition; vs radiolabeled FKN-S2. The settings on record: tags: C-terminal polyhistidine; chemokine domain + mucin-like stalk; R&D Systems 365-FR-025. This is another data set of the same source. On the procedure:
as §2
We hypothesized that the improvement in affinity of the 3′ 10T FKN-S2 amphiphile may be due either to a spacer effect, where the spacer increases the distance between the aptamer and the tail, or due to an improvement in the affinity of the aptamer itself. To investigate the effect of the 10T spacer on the aptamer affinity, we measured the IC₅₀ values of the FKN-S2 aptamer with different nucleotide spacers (Table 3).
With GGGGTGGGTGGGGGGCACGTGTGGGGGCGGCCAGGGTGCTT (ssDNA) [3' 1T FKN-S2 Aptamer], the concentration for half-maximal inhibition (IC50) stood at 0.0092 µM.
Take GGGGTGGGTGGGGGGCACGTGTGGGGGCGGCCAGGGTGCTTTTTT (ssDNA) [3' 5T FKN-S2 Aptamer]: the concentration for half-maximal inhibition (IC50) came out at 0.0034 µM.
For the molecule TTTTTTTTTTGGGGTGGGTGGGGGGCACGTGTGGGGGCGGCCAGGGTGCT (ssDNA) [5' 10T FKN-S2 Aptamer], the IC50 came to 0.0087 µM.
With B1, the IC50 worked out at 0.0027 µM.
As for GGGGTGGGTGGGGGGCACGTGTGGGGGCGGCCAGGGTGCTTTTTTTTTTT (ssDNA) [3' 10T FKN-S2 Aptamer], the IC50 came to 0.0036 µM.

The target of the next series is T1, fractalkine (CX3CL1). The experiment in a line: competition; vs radiolabeled FKN-S2, filter binding, PBS pH 7.4; Table 2 gives 8.6±0.3 nM (n=9). The settings on record: tags: C-terminal polyhistidine; chemokine domain + mucin-like stalk; R&D Systems 365-FR-025; label: 5' 32P; parallel G-quartet and B-form features by CD.
Take GGGGTGGGTGGGGGGCACGTGTGGGGGCGGCCAGGGTGCT (ssDNA) [FKN-S2]: the IC50 was determined as 0.0095 µM.
